Measurements reported in article PMC5570423, “Structural characterisation of TNRC6A nuclear localisation signal in complex with importin-alpha” (PLoS ONE, 2017).

target: Mouse importin-α1 lacking the IBB domain (mImpα1ΔIBB; residues 70–529) (mouse, UniProt P52293 70-529); test: ELISA; solid phase plate binding assay, no cross-linking: MaxiSorp plates coated with 25 nM GST-cNLS or GST in PBS, 0.2 mM PMSF, 2 mM DTT; serial dilutions of S-tagged mImpα1ΔIBB, 1 hr at 4°C; detected with S-protein-HRP; apparent Kd, one-site specific binding, duplicates; details: both partners purified

Binder | Kd
SGKKRRKER (source: E. coli BL21(DE3), purified) [GST-TNRC6A cNLS P5 mutant (Arg1170 to Lys)] | 1140 nM
SGKKKRRER (also called P3 TNRC6A mutant; source: E. coli BL21(DE3), purified) [GST-TNRC6A cNLS P3 mutant (Arg1168Lys)] | 1880 nM
SGKKKRKER (source: E. coli BL21(DE3), purified) [GST-TNRC6A cNLS P3, P5 mutant (Arg1168Lys and Arg1170Lys)] | 898 nM
SGKKRRRER (TNRC6A classical nuclear localisation signal, mouse residues 1164-1172 = human residues 1179-1187 (isoform 1; 926-934 in isoform 2); the motif is strictly conserved between mouse and human; Cloned into pGEX-6P with overlapping oligonucleotides; also called GST-cNLS; GST-NLS; source: E. coli BL21(DE3), purified) | 75.6 nM
PPKKRRRER (also called TNRC6A N-term mutant; source: E. coli BL21(DE3), purified) [GST-TNRC6A cNLS N-term mutant (1164Ser-Gly1165 substituted to prolines)] | 19 nM
